In article PMC4052440 one finds Km and kcat data, which are given here for two proteins.

Where a chain is given by its changes, count along the chain named. Names and notes keep the numbering of the source.

Substrate in this data set: Nc1ncnc2c1ncn2[C@@H]1O[C@H](COP(=O)(O)OP(=O)(O)OP(=O)(O)O)[C@@H](O)[C@H]1O
Kind of data set: ATPase assay. It counts as biochemical, Saccharomyces cerevisiae. As to conditions: Mg-ATP.

The mark [1] stands for this setting: no cluster, table prints the error as ± 5.3.

B1: yeast Atm1p (Saccharomyces cerevisiae S288C) (protein)
chain: SPVIFTVSKLSTQRPLLFNSAVNLWNQAQKDITHKKSVEQFSSAPKVKTQVKKTSKAPTLSELKILKDLFRYIWPKGNNKVRIRVLIALGLLISAKILNVQVPFFFKQTIDSMNIAWDDPTVALPAAIGLTILCYGVARFGSVLFGELRNAVFAKVAQNAIRTVSLQTFQHLMKLDLGWHLSRQTGGLTRAMDRGTKGISQVLTAMVFHIIPISFEISVVCGILTYQFGASFAAITFSTMLLYSIFTIKTTAWRTHFRRDANKADNKAASVALDSLINFEAVKYFNNEKYLADKYNGSLMNYRDSQIKVSQSLAFLNSGQNLIFTTALTAMMYMGCTGVIGGNLTVGDLVLINQLVFQLSVPLNFLGSVYRDLKQSLIDMETLFKLRKNEVKIKNAERPLMLPENVPYDITFENVTFGYHPDRKILKNASFTIPAGWKTAIVGSSGSGKSTILKLVFRFYDPESGRILINGRDIKEYDIDALRKVIGVVPQDTPLFNDTIWENVKFGRIDATDEEVITVVEKAQLAPLIKKLPQGFDTIVGERGLMISGGEKQRLAIARVLLKNARIMFFDEATSALDTHTEQALLRTIRDNFTSGSRTSVYIAHRLRTIADADKIIVLDNGRVREEGKHLELLAMPGSLYRELWTIQEDLDHLENELKDQQEL
In the case of B1, under setting [1], the Michaelis-Menten constant (Km) (usually the concentration of substrate that gives half-maximal velocity) was found to be 54.6 ± 0.4 µM; the kcat (usually the number of substrate molecules converted per active site and unit of time at saturation) came to 0.0322 ± 0.0005 s⁻¹.

B2: yeast Atm1p (Saccharomyces cerevisiae S288C; R284E) (protein)
chain: B1 chain with R258E
B2: the Michaelis-Menten constant (Km) (from the cluster-activation fit, table title prints R48E, column R284E) was 55.0 ± 16.5 µM.
